Assay results taken from the RNAGym collection of RNA variant scans (doi:10.1073/pnas.2313332121).

B1: TPR t1 (parent)
chain: GACCAAUCUGCCCUCAGAGCUCGAGAACAUCUUCGGAUGCAGAGGAGGCAGGCUUCGGUGGCGCGAUAGCGCCAACGUCCUCAACCUCCAAUGCAUCCCACCACAUGAUGAUGCCUGAAGAGCCUUGGUUUUUUG

Variants of: B1
Assay: polymerase ribozyme fitness, log enrichment relative to wild type (log ratio); higher = more active; in vitro selection for triplet polymerase activity
Summary of the method: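 For each subunit of a heterodimeric triplet polymerase ribozyme, a mutant library was built by PCR and transcribed, then taken through a single in vitro selection round in triplicate. Selection involved annealing to a biotinylated primer, the partner subunit and triplets, incubation frozen at −7 °C, gel excision of extended constructs, capture on streptavidin beads and RT-PCR. Genotypes were retained after Illumina sequencing of inputs and outputs only with ≥10 input reads and ≥1 read in each output. Fitness is defined as the logarithm of a genotype's enrichment relative to wild-type enrichment, using inverse-variance-weighted averages across replicates, with the logarithm taken to base 2.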

In order of rising “polymerase ribozyme fitness (log ratio)” value:
1. GACCAAUCUGCCCUCAGAGCUCGAGAACAUCUUCGGAUGCAGAGUAGGCAGGAUUCGGUGGCGCGAUAACGCCAACGUCCUCAACCUCAAAUGCAUCCCACCAUAUGAUGAUGCCUGAAGAGCAUUGGUUUUUUA  -6.34
2. GACCAAUCUGCCCUCAGAGCUCGAGAACAUCUUCGGAUGCAGAGUAGGCAGGCUUCGGUGGCGCGAUAGAGCCAACGUCCUCAAACUCCUAUGCAUCCCACCACAUGAUGAUGCCUGAAGAGCCUUGGUUUUUUG  -6.19
3. GACCAAUCUGCCCUCAGAGCUCGAGAACAUCUUCGGAUGCAGAGUAGGCAGGAUUCGGUGGCGAGAUAGCGCCAACGUCCUCAACCUCCAAUGCAUCCCACCACAUGAUGAAGCCUAAAGAGCCUUGGUUUUUUG  -6.13
4. GACCAAUCUGCCCUCAGAGCUCGAGAACAUCUUCGGAUGCAGAGUAGGCAGGCUUCGGUGGCGAGAUAGCGCCAACGUCCUCAACCUCCAAUGCAUCCCACCACAUGAUGUUGCCUGAAGAGCCUUGGUUUUAUG  -5.34
5. GACCAAUCUGCCCUCAGAGCUCGAGAACAUCUUCGGAUGCAGAGUAGGCAGGCUUCGGUGGCGCGAUGGCGCCAACGUCCUCAACCUCCAAUGCAUCCCACCACAUGAUGAUGCCUGAAGAGCCUUGGUUUUUUG  -4.43
6. GACCAAUCUGCCCUCAGAGCUCGAGAACAUCUUCGGAUGCAGAGUAGGCAGGCUUCGGUGGCGCGAUAGCGCCAACGUCCUCAACCUCCAAUGUAUCCCACCACAUGAUGUUGCCUGAAGAGCCUUUGUUUUUUG  -3.61
7. GACCAAUCUGCCCUCAGAGCUCGAGAACAUCUUCGGAUGCAGAGUAGGCAGGCUUCGGUGGCGCGAUAGCGCCAACGUCCUCAACCUCCAAUGCAUCCCACCACAUGAUGUUGCCUGAAGAGCUUUGGUUUUUUG  -3.45
8. GACCAAUCUGCCCUCAGAGCUCGAGAACAUCUUCGGAUGCAGAGUAGGCAGGCUUCGGUGGCGCGAUAGCGCCAACGUCCUCAACCUCCAAUGUAUCCCAGCACAUGAUGAUGCCUGAAGAGCCUUGGUUUUUUG  -3.3
9. GACCAAUCUGCCCUCAGAGCUCGAGAACAUCUUCGGAUGCAGAGUAGGCAGGCUUCGGUGGCGCGAUAGCGCCCACGUCCUCAACCUCCAAUGCAUCCCACCACAUGGUGAUGCCUGAAGAGCCUUGGUUUUUUG  -3.25
10. GACCAAUCUGCCCUCAGAGCUCGAGAACAUCUUCGGAUGCAGAGUAGGCAGGCUUCGGUGGUGCGAUAGCGCCAACGGCCUCAACCUCCAAUGCAUCCCAACACAUGAUGAUGCCUGAAGAACCUUGGUUUUUUG  -3.21
11. GACCAAUCUGCCCUCAGAGCUCGAGAACAUCUUCGGAUGCAGAGUAGGUAGGCUUCGGUGGCGCGAUAGCGCCAACGUCCUCAACCUCCAAUGCAUCCCACCACAUGAUGAUGCGUGAAGAGCCUUGGUUUUUUG  -3.11
12. GACCAAUCUGCCCUCAGAGCUCGAGAACAUCUUCGGAUGCAGAGUAGGCAGGCUUCGGUGGCGCGAUAGAGCCAACGUCCUCAACCUCCAAUGCAUCCCACCACAUGAUGAUGCCUGAAGAGCCUUGGUUUUUUG  -2.74
13. GACCAAUCUGCCCUCAGAGCUCGAGAACAUCUUCGGAUGCAGAGUAGGCAGGCUUCGGUGGCGCGAUAGAGCCAACGUCCUCAACCUCCAAUGCAUCCCACCACAUGAUGAUGCCUGAAUACCCUUGGUUUUUUG  -2.72
14. GACCAAUCUGCCCUCAGAGCUCGAGAACAUCUUCGGAUGCAGAGUAGGCAGGCUUCGGUGGCGCGAUAGCGGCAACGUCCUCAACCUCCAAUGCAUCCCACCACAUGAUGAUGACUGAAGAGCCUUGGUUUUUUG  -2.66
15. GACCAAUCUGCCCUCAGAGCUCGAGAACAUCUUCGGAUGCAGAGUAGGUAGGCUUCGGUGACGCGAUAGCGCCAACGUCCUCAACCUCCAAUGCAUCCCACCACAUGAUGAUGCGUGAAGAGCCUUGGUUUUUUG  -2.62
16. GACCAAUCUGCCCUCAGAGCUCGAGAACAUCUUCGGAUGCAGAGUAGGCAGGCUUCGGUGGCGCGAUAGCGACAACGUCCUCAACCUCCAAUGCAUCCCACCACAUGAUGAUGACUGAAGAGGCUUGGUUUUAUG  -2.6
17. GACCAAUCUGCCCUCAGAGCUCGAGAACAUCUUCGGAUGCAGAGUAGGCAGGCUUCGGUGGCGCGAUAGCGCCAACGUCCUCACCCUCCAAUGAAUCCCACCACAUGAUGAUGCCUGAAGAGCCUUGGUUUUUUG  -2.59
18. GACCAAUCUGCCCUCAGAGCUCGAGAACAUCUUCGGAUGCAGAGUAGGCAGGUUUCGGUGACGCGAUAGCGCCAACGUCCUCAACCUCCAAUGCAUCCCACCACUUGAUGAUGCCUGAAGAGCCUUGGUUUUUUG  -2.59
19. GACCAAUCUGCCCUCAGAGCUCGAGAACAUCUUCGGAUGCAGAGUAGGCUGGCUUCGGUUGCGCGAUAGCGCCAACGUGCUCAACCUCCAAUGCAUCCCACCACAUGAUGAUGCCUGAAGAGCCUUGGUUUUUUG  -2.53
20. GACCAAUCUGCCCUCAGAGCUCGAGAACAUCUUCGGAUGCAGAGUAGGCAGGCUUCGGUGGCGCGAUAGCGCCAACGUCCUCAACCUCUAAUGCAACCCACCACAUGAUGAUGUCUGAAGAGCGUUGGUUUUUUG  -2.49
21. GACCAAUCUGCCCUCAGAGCUCGAGAACAUCUUCGGAUGCAGAGUAGGCAGGCUUCGGUGGCGCGGUAGCGCCAACGUCCUCAACCUCCAAUGCAUCCCACCACAUGAUGAUGCCUGAAGAGCCUUGGUUUUUUG  -2.32
22. GACCAAUCUGCCCUCAGAGCUCGAGAACAUCUUCGGAUGCAGAGUAGGCAGGCUUUGGUGGCGCGAUAGUGCCAUCGUCCUCAACCUCCAAUGCAUCCCACCACAUGAUGAUGCCUGAAGAGCCUUGGUUUUUUG  -2.3
23. GACCAAUCUGCCCUCAGAGCUCGAGAACAUCUUCGGAUGCAGAGUAGGCAGGCUUGGGUGGCGCGAUAGCGCCAACGUCCUCAACCUCCAAUGCAUCCCACCACAUGAUGAUGCCUGAAGAGCCUUGGUUUUUUG  -2.16
24. GACCAAUCUGCCCUCAGAGCUCGAGAACAUCUUCGGAUGCAGAGUAGGCAGGCUUCGGUGGCGCGAUAGCGCUAACGUCCUCAACCUCCAAUGCAUCCCACCACAUGAUGAUGCCUGAAGAGCCUUGGUUUUUUG  -1.98
25. GACCAAUCUGCCCUCAGAGCUCGAGAACAUCUUCGGAUGCAGAGUAGGUAGGCUUCGGUGGCGCGAUAGCGCCAACGUCCUCAACCUCCAAUGCAUCCCACCACAUGAUGAUGCCUGAAGAGCCUUGGUUUUUUG  -1.85
26. GACCAAUCUGCCCUCAGAGCUCGAGAACAUCUUCGGAUGCAGAGUAGGCAGGAUUCGGUGGCGCGAUAGCGCCAACGUCCUCAACCUCCGAUGCAUUCCACCACAUGAUGAUGCCUGAAGAGCCUUGGUUUUUUG  -1.75
27. GACCAAUCUGCCCUCAGAGCUCGAGAACAUCUUCGGAUGCAGAGUAGGCUGGCUUCGGUAGUGCGAUAGCGCCAACGUCCUCAACCUCCAAUGCAUCCCACCACAUGAUGAUGCCUGAAGAGCCUUGGUUUUUUG  -1.75
28. GACCAAUCUGCCCUCAGAGCUCGAGAACAUCUUCGGAUGCAGAGUAGGCAGGCUUCGGUGGCGCGAUAGCGCCAACGUCCUCAACCUCCAAUGCUUCCCACCACAUGAUGAUGCCUGAAGAGCCUUGGUUUUUUG  -1.69
29. GACCAAUCUGCCCUCAGAGCUCGAGAACAUCUUCGGAUGCAGAGUAGGCAGGCUUCGGUGGCGCGAUAGCGCCAACGUCCUCAACCUCCAAUGAAUCCCACCACAUGAUGAUGCCUGAAGAGCCUUGGUUUUUUG  -1.66
30. GACCAAUCUGCCCUCAGAGCUCGAGAACAUCUUCGGAUGCAGAGUAGGCAGGCUUCGGUGGCGCGAUAGCGUCAACGUCCUCAACCUCCAAUGCAUCCCACCACAUGAUGAUGCCUGAAGAGCCUUGGUUUUUUG  -1.63
31. GACCAAUCUGCCCUCAGAGCUCGAGAACAUCUUCGGAUGCAGAGUAGGCAGGCUUCGGUGGUGCGAUAGCGCCAACGUCCUCAACCUCCAAUGCAUCCCACCACAUGAUGAUGCCUGAAGAGCCUUGGUUUUUUG  -1.63
32. GACCAAUCUGCCCUCAGAGCUCGAGAACAUCUUCGGAUGCAGAGUAGGCAGGAUUCGGUGGCGCGAUAGCGACAACGUCCUCAACCUCGAAUGCAUCCCACCACAUGAUGAUGCCUGAAGAGCCUUGGUUUUUUG  -1.62
33. GACCAAUCUGCCCUCAGAGCUCGAGAACAUCUUCGGAUGCAGAGUAGGCAGGCUUCGGUGGCGCGAUAGCGCCAACGUCCUCAACCUCCCAUGCAUCCCACCACAUGAUGAUGCCUGAAGAGCCUUGGUUUUUUG  -1.56
34. GACCAAUCUGCCCUCAGAGCUCGAGAACAUCUUCGGAUGCAGAGUAGGCAGGCUUCGGUGGCGCGAUAGCGCCAACGUCCUCAACCUCCAAUGUAUCCCACCACAUGAUGAUGCCUGAAGAGCCUUGGUUUUUUG  -1.46
35. GACCAAUCUGCCCUCAGAGCUCGAGAACAUCUUCGGAUGCAGAGUAGGUAGGCUUCGGUGGCGCGAUAUCGCCAACGUCCUCAACCUCCAAUGCAUCCCACCACAUGAUGAUGCCUGAAGUGCCUUGCUUUUUUG  -1.32
36. GACCAAUCUGCCCUCAGAGCUCGAGAACAUCUUCGGAUGCAGAGUAGGCAGGCUUUGGUGGCGCGAUAGCGCCAACGUCCUCAACCUCCAAUGCAUCCCACCACAUGAUGAUGCCUGAAGAGCCUUGGUUUUUUG  -1.13
37. GACCAAUCUGCCCUCAGAGCUCGAGAACAUCUUCGGAUGCAGAGUAGGCAGGCUUCGGUGGCGCGAUAGCGCGAACGUCCUCAACCUCCAAUGCAUCCCACCACAUGAUGAUGCCUGAAGAGCCUUGGUUUUUUG  -0.942
38. GACCAAUCUGCCCUCAGAGCUCGAGAACAUCUUCGGAUGCAGAGUAGGCAGGCUUCGGUGGCGCGAUAGCGCCAACGUCCUCAACCUUCAAUGCAUCCCACCACAUGAUGAUGCCUGAAGAGCCUUGGUUUUUUG  -0.272
39. GACCAAUCUGCCCUCAGAGCUCGAGAACAUCUUCGGAUGCAGAGUAGGGAGGUUUCGGUGGCGCGAUAGCGCCAACGUCCUCAACCUGCAAUGCAUCCCACCACAUGAUGAUGCCUGAAGAGCCUUGGUUUUUUG  -0.226
40. GACCAAUCUGCCCUCAGAGCUCGAGAACAUCUUCGGAUGCAGAGUAGGCAGGCUUCGGUGGCGCGAUAGCGCCAACGUCCUCAACCUACAAUGCAUCCCACCACAUGAUGAUGCCUGAAGAGCCUUGGUGUUUUG  -0.102
41. GACCAAUCUGCCCUCAGAGCUCGAGAACAUCUUCGGAUGCAGAGUAGGCAGGCUUCGGUGGCGCGAUAGCGCCAGCGUCCUCAACCUCCAAUGCAUCCCACCACACGAUGAUGCCUGAUGCGCCUUGGUAUUUUG  -0.0532
42. GACCAAUCUGCCCUCAGAGCUCGAGAACAUCUUCGGAUGCAGAGUAGGCAGGCUUCGGUGGCGCGAUAGCGCCCACAUCCUCAACCUCCAAUGCAUCCCACCACAUGAUGACGCCUGAAGAGCCUUGGUUUUUUG  1.05
